{"source": "patent US20250298034A1", "about": "“METHODS OF TREATING IMMUNOTHERAPY-ASSOCIATED ADVERSE EFFECTS” (NORTHWESTERN UNIVERSITY, priority 2022, published 2025)", "molecules": {"B1": {"name": "sMIC: recombinant sMIC (rsMICB, his-tagged, SinoBiologicals Cat. No 10759-H08H) (protein, UniProt Q29980 23-383, looked up)", "MHC class I …": "AEPHSLRYNLMVLSQDGSVQSGFLAEGHLDGQPFLRYDRQKRRAKPQGQWAENVLGAKTWDTETEDLTENGQDLRRTLTHIKDQKGGLHSLQEIRVCEIHEDSSTRGSRHFYYDGELFLSQNLETQESTVPQSSRAQTLAMNVTNFWKEDAMKTKTHYRAMQADCLQKLQRYLKSGVAIRRTVPPMVNVTCSEVSEGNITVTCRASSFYPRNITLTWRQDGVSLSHNTQQWGDVLPDGNGTYQTWVATRIRQGEEQRFTCYMEHSGNHGTHPVPSGKALVLQSQRTDFPYVSAAMPCFVIIIILCVPCCKKKTSAAEGPELVSLQVLDQHPVGTGDHRDAAQLGFQPLMSATGSTGSTEGT", "modifications": "His-tag"}}, "system": "human peripheral monocyte differentiated M1 macrophages", "test": "In vitro sMIC induction of PDL1 expression on monocyte-derived macrophages (flow cytometry)", "type": "cell-based", "conditions": "recombinant sMIC added at day 7, cultured 2 days; FIG. 4E", "protocol": "In vitro macrophage generation from peripheral monocytes: Human peripheral blood monocyte differentiation into macrophages. PBMCs from healthy donors were seeded at the density of 2×10^6 cells/well in a 24 well plate with pre-warmed monocyte attachment media (MAM, Promocell, Cat. No. c-28051) and incubate at 37° C. After 1.5 hr incubation, non-adherent cells were removed. Adherent cells were washed three times with pre-warmed MAM before cultured in macrophage differentiation media respectively, the M1 macrophage generating media (Promocell c-28055) or the M2 macrophage generating media (Promocell c-28056). After 5 days of culture, 50% of the media were replaced with fresh media. At day 7, recombinant sMIC (rsMICB, his-tagged, SinoBiologicals Cat. No 10759-H08H) or control vehicle PBS were added to the culture at indicated concentration. The culture was continued for 2 days before being harvested for analyses.", "data": [{"molecule": "B1", "values": [{"measurement": "PDL1 expression on M1 macrophages", "value": "can induce PDL1 expression"}]}]}
